# Measured values: US12180255B2, “Compositions and methods for derepressing RE1 silencing transcription factor target genes” (Alcamena Stem Cell Therapeutics, LLC, priority 2019, dated 2024)
# [ ]: non-standard residue; d: D form. ξ: configuration not given here. ξGly(dodecyl) = CCCCCCCCCCCCC(N)C(=O)O
# Target: T1, CTDSP1 (Homo sapiens, UniProt Q9GZU7)
# T1 construct: GSGS linker + His6 (C)
# T1 sequence (Q9GZU7 with tags, fused parts or gaps): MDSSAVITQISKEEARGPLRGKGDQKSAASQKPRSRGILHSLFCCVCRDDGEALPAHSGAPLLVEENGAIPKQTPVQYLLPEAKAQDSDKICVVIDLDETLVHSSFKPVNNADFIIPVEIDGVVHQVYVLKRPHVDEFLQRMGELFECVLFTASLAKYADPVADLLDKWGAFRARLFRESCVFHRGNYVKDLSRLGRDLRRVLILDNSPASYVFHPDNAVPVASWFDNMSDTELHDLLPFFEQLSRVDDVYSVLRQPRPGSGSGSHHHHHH
# Assay: In vitro CTDSP1 phosphatase activity on phosphorylated REST peptide
# Format: biochemical
# Settings: 1 μM peptide-GST fusion; relative to GST control; substrate TEDpSPPpSPPLPKEN
# Method: FIG. 25. In vitro CTDSP1 phosphatase activity (relative to GST control) on the REST peptide (TEDpSPPp[…] (SEQ ID NO: 329)) as a substrate after exposure to 1 μM of RPP (SEQ ID NO: 1) or one of its variants (Table 3).
# FIG. 26. […] N=5, error bars are standard deviation.
# Results: FIG. 25—The top 51 most abundant RPP variants identified in the RNA display/protein evolution screen are listed in-Table 3 in the order of most (V1) to least (V51) abundant peptides. The primers used to make these peptides are listed in-Table 5. A phosphatase activity screen (Table 6, FIG. 25) was used to assess the ability of the top 51 RPPV to inhibit CTDSP1 phosphatase activity at amino acids 861 and 864 on the endogenous phosphorylated REST peptide (TEDpSPPp[…] (SEQ ID NO: 329)).
# The phosphorylated REST peptide (TEDpSPPp[…] (SEQ ID NO: 329)) was synthesized by GeneScript. Phosphatase reactions were performed with 10 mM Tris pH 8, 10 mM MgCl2, 100 nM CTDSP1, 0.5 μM phosphate sensor (Thermo Fischer), 50 μM of REST peptide and various concentrations of peptide-GST fusions at room temperature for 10 min. All assays were performed in 96-well pates (Corning P/N 3686) rinsed with water 10 times. Fluorescence was measured by BioTek Synergy HTX using kinetic read with excitation at 420/27 nm and emission at 485/20 nm.
row,Substance,Relative Phosphatase activity
1,MCIADPEPPEAQLPEGNC [v14],0.54
2,MCPEDLQPPEPALPEKKKKKIVVLALVVKSAVSVGVV [v41],0.46
3,MCPGDLKQPEPPMPKEYC [v11],0.13
4,MCSEAQEPPESRLPQVNC [v16],0.79
5,MCSVDLQPPARLRPMVNC [v20],0.13
6,MCTAAPEPPEPPVSKEYC [v18],0.43
7,MCTADLEPPEPRMEKKKVDC [v5],0.49
8,MCTADLKPPKTTMTKQNC [v10],0.84
9,MCTEAPAPPEPALPKKKKKNC [v2],0.66
10,MCTEAPAPPEPALPKKKKNC [v4],0.67
11,MCTEDLEPPKATMTKKDC [v12],0.41
12,MCTEDLQLPKTTMTKEYC [v19],0.76
13,MCTEDLQPPEPQLPEVNC [v23],0.60
14,MCTEDLQSPKTTMTKENC [v7],0.24
15,MCTEDMEPRKTTMTKKYC [v25],0.63
16,MCTEDQEQQEEQLPEENC [v9],0.65
17,MCTEDQERPPVTKEDC [v13],0.20
18,MCTGDLQPPEAQVIEVNC [v22],0.59
19,MCTGDLQPPESRQPQVNC [v21],0.26
20,MCTGDLQPPKTTVSKKDC [v6],0.77
21,MCTGVQEPPEATLPKKNC [v15],0.70
22,MCTKHLEPPGPPLPQENC [v17],0.24

# Next, values leading:
row,Relative Phosphatase activity,Substance
1,0.97,MCAEDLQPPPLLEAHCGSDSGRKKRRQC [v43]
2,0.00,MCAGDLEQPEPPVAKKKKKNC [v33]
3,0.59,MCAGDLKPPETTMSKKNC [v39]
4,0.68,MCNEALEPPPLRKEHC [v36]
5,0.74,MCNGDLERPEPPVAKEYC [v34]
6,0.16,MCPEDLERPPLTKEHC [v37]
7,0.43,MCSEDPEPPKTTMTKKNC [v31]
8,0.37,MCSVDLQPPARLRPMVNC [v46]
9,0.53,MCTAAPEPPEPQLPQANC [v44]
10,0.58,MCTADLQPPEASLPQQNC [v49]
11,0.20,MCTEALEPPEPPLTKENC [v47]
12,0.46,MCTEAPAPPEPALPKKKKKKNC [v26]
13,0.19,MCTEAPAPPEPALPKKKKKNC [v27]
14,0.28,MCTEDLEPPERPLPREIC [v38]
15,0.89,MCTEDLKPPEASLPEENC [v32]
16,0.07,MCTEDLKPPEPPLPKENC [v35]
17,0.62,MCTEDLQPPKTTMAEKYC [v30]
18,0.29,MCTEDLQQPERSQPMESC [v40]
19,0.33,MCTEDLQSPKTTMTKENC [v28]
20,0.48,MCTEVLVPRTTSGKGRLWFWLWSQKGHPSASACGS [v42]
21,0.17,MCTGDLKLPEPPMSKKKKKNC [v29]
22,0.71,MCTKDLAPQAPPLLKENC [v51]

# Same assay, conditions: 1 μM; relative to control (GST)
row,inhibition of phosphatase activity,Substance
1,100%,MCAGDLEQPEPPVAKKKKKNC [v33]
2,approximately 60%,MCTEDLEPPEPPLPKENC [v1]
3,approximately 90%,MCTEDLKPPEPPLPKENC [v35]

# Tested on: L5 DRGs
# Assay: qRT-PCR mRNA expression in ex vivo cultured L5 DRGs
# Format: cell-based, Sprague Dawley rat
# Settings: DRG; 1 μM; 48 h
# Method: FIG. 15. […] Error bars =standard error of the mean.
# L5 DRGs were dissected from adult male rats and plated in 12-well plates pre-coated with poly-D-Lysine (PDL) and laminin in a minimal volume of medium (250 ul Neurobasal™-A medium (GIBCO) supplemented with B27 (GIBCO), 50 ng/ml NGF (Sigma-Aldrich) and penicillin streptomycin) to allow attachment to the culture plate. One day after plating, DRGs were incubated with RPP (SEQ. ID NO: 12: 1 μM, 3 μM or 10 μM in culture medium, FIGS. 14 and 16; SEQ ID NOS: 13 and 14: 3 μM, FIG. 15) for 48 h. For RNA expression analysis, DRGs were lysed in 300 μl of Qiazol in a 1.5 ml tube containing Bullet Blender Pink Beads using a Bullet Blender Tissue Homogenizer (NextAdvance). Total RNA was extracted using RNeasy Midi Kit (Qiagen) according to manufacturer's instructions. Purified RNA was quantified with NanoDrop 2000 (ThermoFIsher), and reverse transcription was run using High Capacity cDNA Reverse Transcription Kit (Applied Biosystems) and 2 ng/ul RNA per reaction. For qRT-PCR, 5 ul of cDNA (corresponding to 10 ng of RNA) were mixed with to 10 ul SsoAdvanced™ Universal SYBR® Green Supermix (BioRad) and 1 ul of each primer (final primer concentration 500 nM each). Reactions were run in triplicates in a QuantStudio™ 7 Flex Real-Time PCR system (Applied Biosystems). Amplification data were analyzed using the comparative cycle threshold (ΔΔCt) method and β-actin as calibrator. Primers were as follows: β-actin: F-[…] (SEQ ID NO: 340), R-[…] (SEQ ID NO: 333); KV4.3: F-[…] (SEQ ID NO: 341), R-[…] (SEQ ID NO: 342); KV7.2 F-[…] AG (SEQ ID NO: 343), R-[…] (SEQ ID NO: 344); OPRM1: F-[…] (SEQ ID NO: 345), R-[…] (SEQ ID NO: 346).
row,Substance,"Increase, Nav1.8 mRNA"
1,SEQ ID NO: 14: RPP fused to an intracellular transport peptide and cyclized; sequence in Table 19 (cyclo([dR][dR][ξGly(dodecyl)][dR][dR][dR][dK][dP][dL][dP][dP][dE][dP][dP][dE][dL][dD][dE]); SMILES CCCCCCCCCCCCC1NC(=O)[C@@H](CCCNC(=N)N)NC(=O)[C@@H](CCCNC(=N)N)NC(=O)[C@@H](CCC(=O)O)NC(=O)[C@@H](CC(=O)O)NC(=O)[C@@H](CC(C)C)NC(=O)[C@@H](CCC(=O)O)NC(=O)[C@H]2CCCN2C(=O)[C@H]2CCCN2C(=O)[C@@H](CCC(=O)O)NC(=O)[C@H]2CCCN2C(=O)[C@H]2CCCN2C(=O)[C@@H](CC(C)C)NC(=O)[C@H]2CCCN2C(=O)[C@@H](CCCCN)NC(=O)[C@@H](CCCNC(=N)N)NC(=O)[C@@H](CCCNC(=N)N)NC(=O)[C@@H](CCCNC(=N)N)NC1=O),13x
